Test results published in US20190100588A1 (VISTERRA, published 2019).

T1: cell surface CD138 (human CD138) (human, UniProt P18827 23-310)
T1 construct: whole, on cells; also called membrane CD138
T1 sequence (looked up): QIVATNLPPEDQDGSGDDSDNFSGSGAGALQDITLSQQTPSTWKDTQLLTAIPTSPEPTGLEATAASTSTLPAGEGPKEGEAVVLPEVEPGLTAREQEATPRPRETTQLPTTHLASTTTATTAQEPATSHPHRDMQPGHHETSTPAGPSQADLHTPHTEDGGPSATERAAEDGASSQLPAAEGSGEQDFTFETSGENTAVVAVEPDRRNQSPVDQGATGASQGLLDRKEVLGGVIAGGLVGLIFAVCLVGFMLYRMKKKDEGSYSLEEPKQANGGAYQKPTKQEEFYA

T2: rCD138 (recombinant CD138) (human, UniProt P18827 23-254, limits assumed)
T2 sequence (looked up): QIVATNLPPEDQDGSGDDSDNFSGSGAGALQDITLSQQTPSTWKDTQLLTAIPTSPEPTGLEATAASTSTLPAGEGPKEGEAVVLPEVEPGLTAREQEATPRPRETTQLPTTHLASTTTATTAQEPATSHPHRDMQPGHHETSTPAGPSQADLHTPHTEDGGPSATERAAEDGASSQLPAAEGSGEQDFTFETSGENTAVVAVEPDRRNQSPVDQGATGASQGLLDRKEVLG

T3: Pep6 (human)
T3 construct: also called Peptide 6; Peptide-6
T3 peptide: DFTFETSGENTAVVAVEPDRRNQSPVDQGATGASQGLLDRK

T4: Pep3 (human)
T4 construct: also called Peptide 3
T4 peptide: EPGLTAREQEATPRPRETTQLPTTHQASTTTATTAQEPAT

T5: Pep5 (human)
T5 construct: also called Peptide 5
T5 peptide: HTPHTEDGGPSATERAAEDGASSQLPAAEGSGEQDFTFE

T6: Pep4 (human)
T6 construct: also called Peptide 4
T6 peptide: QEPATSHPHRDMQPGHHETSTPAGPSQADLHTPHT

T7: Peptide 2a (human)
T7 construct: also called Pep2a
T7 peptide: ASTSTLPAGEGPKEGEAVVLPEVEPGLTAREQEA

T8: recombinant CD138 extracellular domain (soluble CD138) (human, UniProt P18827 23-250)
T8 construct: also called soluble CD138 extracellular domain; biotinylated CD138
T8 sequence: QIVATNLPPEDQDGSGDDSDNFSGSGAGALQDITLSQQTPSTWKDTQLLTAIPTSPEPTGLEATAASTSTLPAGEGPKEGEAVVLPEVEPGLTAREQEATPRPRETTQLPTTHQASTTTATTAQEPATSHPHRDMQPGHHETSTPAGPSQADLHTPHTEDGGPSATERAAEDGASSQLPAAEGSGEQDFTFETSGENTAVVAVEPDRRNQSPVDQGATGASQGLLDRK


Columns and labels:
[1] = target: T1, cell surface CD138 (human CD138); experiment: flow cytometry, RPMI 8226 cells
Method: (§1) Binding of anti-CD138 antibodies to CD138 was tested by flow cytometry binding assay. Multiple myeloma cell lines RPMI 8226 (ATCC) and U266 (ATCC) were grown in RPMI1640 with 10% FBS. On the day of experiment, 0.25×10⁶ cells were washed with FACS buffer (PBS+0.5% BSA) and incubated with dilution series of anti-CD138 antibodies (starting 10 ug/ml) or hybridoma supernatants (starting with undiluted supernatant) for 30 min at 4° C. followed by incubation with goat-anti-human/mouse conjugated APC antibodies (BioLegend) for 30 min at 4° C. Fluorescence was detected using flow cytometer.

[2] = target: T2, rCD138 (recombinant CD138); experiment: ELISA, coated rCD138
Pep6 [3] = target: T3, Pep6; experiment: ELISA, coated peptide
Pep3 = target: T4, Pep3; experiment: ELISA, coated peptide
Pep5 = target: T5, Pep5; experiment: ELISA, coated peptide
Pep4 = target: T6, Pep4; experiment: ELISA, coated peptide
[4] = target: T1, cell surface CD138 (human CD138); experiment: flow cytometry, U266 cells
Method: as §1

Peptide 2a [5] = target: T7, Peptide 2a; experiment: peptide binding ELISA
Method: (§2) As above, the monoclonal antibodies were tested for binding to a series of CD138 peptides in four-fold serial dilutions starting at 1 μg/mL. […] HRP-conjugated anti-human IgG-Fc antibody (1:5000 dilution) was used for detection. Antibody B-B4 was also tested as a reference. […] Reference antibody B-B4 only bound to Peptide 2a.

Pep6 [6] = target: T3, Pep6; experiment: peptide binding ELISA
Method: as §2

[7] = target: T8, recombinant CD138 extracellular domain …; experiment: ELISA (FIG. 18A)
Pep6 [8] = target: T3, Pep6; experiment: ELISA (FIG. 18C)
[9] = target: T1, cell surface CD138 (human CD138); experiment: flow cytometry, U266 cells, afucosylated antibody
Method: as §1
The afucosylated antibody variants were then tested for capacity to induce ADCC, as described above.

Peptide 2a [10] = target: T7, Peptide 2a; experiment: ELISA (FIG. 18B)
[11] = target: T1, cell surface CD138 (human CD138); experiment: form of CD138 not named

| % cells Positive [1] [%] | ELISA O.D. [2] [O.D.] | ELISA O.D. (Pep6 [3]) [O.D.] | ELISA O.D. (Pep3) [O.D.] | ELISA O.D. (Pep5) [O.D.] | ELISA O.D. (Pep4) [O.D.] | % cells Positive [4] [%] | Binder | also measured |
| --- | --- | --- | --- | --- | --- | --- | --- | --- |
| 85 | 0.882 | 1.37 | 0.067 | 0.066 | 0.066 | 3.7 | antibody 619 (antibody, V domains shown, Mouse hybridoma-derived anti-CD138 antibody) VH: QIQLVQSGPELKKPGETVKISCKASGYTFTTYGMSWVKQAPGKGLKWMGWINTYSGVPTYADDFKGRFAFSLETSASTAYLQINNLKNEDTATYFCAREGSTMVTRYYFDYWGQGTTLTVSS VL: DIVMTQAAPSVPVTPGESVSISCRSSKSLLHSNGNTYLYWFLQRPGQSPQVLIYRMSNLASGVPDRFSGSGSGTAFTLRISRVEAEDVGVYYCMQHLESPYTFGGGTKLEIK | – |
| 63.8 | 0.803 | 1.67 | 0.086 | 0.08 | 0.082 | 7 | antibody 623 (antibody, V domains shown, Mouse hybridoma-derived anti-CD138 antibody) VH: QIQLVQSGPELKKPGETVKISCKASGYTFTTYGMSWVKQAPGKGLKWMGWINTYSGVPTYADDFKGRFAFSLETSASTAYLQINNLKNEDTATFFCAREGSTMVTRYYFDYWGQGTTLTVSS VL: DIVMTQAAPSVPVTPGESVSISCRSSKSLLHSNGNTYLYWFLQRPGQSPQLLIYRMSNLASGVPDRFSGSGSGTAFTLRISRVEAEDVGVYYCMQHLEYPSTFGGGTKLEIK | – |
| 18.3 | 1.18 | 1.62 | 0.063 | 0.061 | 0.065 | 6.1 | antibody 616 (antibody, V domains shown, Mouse hybridoma-derived anti-CD138 antibody) VH: QIHLVQSGPELKKPGETVRISCKASGYTFTTYGMSWVKQAPGKALKWMGWINTYSGVPTYADDFKGRFAFSLETSASTAYLQINNLKNEDTATYFCTREGSTMVTRYYFDYWGQGTTLTVSS VL: DIVMTQAAPSVPVTPGESVSISCRSSKSLLHSNGNTYLYWFLQRPGQSPQLLIYRMSNLASGVPDRFSGSGSGTAFTLRISRVEAEDVGVYHCMQHLESPYTFGGGTTLEIK | – |
| – | – | – | – | – | – | – | antibody 1409 (antibody, human IgG1, V domains shown, Chimeric monoclonal antibody, murine variable regions and human IgG1) VH: EVQLVESGGGLVQPKGSLKLSCAASGFTFNTYAMHWVRQAPGKGLEWVARIRSKSSNYATYYADSVKDRFTISRDDSQSMLYLQMNNLKTEDTAMYYCVRELRLRYAMDYWGQGTSVTVSS VL: DILMTQTPLTLSVTIGQPASISCKSSQSLLYTNGKTYLNWLLQRPGQSPKRLIYLVSKLDSGVPDRFSGSGSGTDFTLKISRVEAEDLGVYYCLQSTHFPLTFGAGTKLELK | binding result (Peptide 2a [5]): binds; binding result (Pep6 [6]): binds |
| – | – | 0.809 | – | 0.066 | 0.091 | – | antibody 617 (antibody, V domains shown, Mouse hybridoma-derived anti-CD138 antibody) VH: QVQLQLPGAELVKPGASVKVSCKASAYTFTSYWMHWVKQRPGQGLEWIGRIHPSDSDTNYNQNFKGKATLTVDKSSNTAYMQLSSLTSEDSAVYYCATGFSFWGQGTLVTVSA VL: DIVMTQSHKFMSTSVGDRVSITCKASQDVSTTVAWYQQKPGQSPKLLIYSASYRYTGVPDRFTGSGSGTDFTFTISSVQAEDLAVYYCQQHYSTRPTFGGGTKLEIK | – |
| 81.4 | 0.585 | 0.863 | 0.047 | 0.053 | 0.051 | 95.8 | antibody 603 (antibody, V domains shown, Mouse hybridoma-derived anti-CD138 antibody) VH: QVQVQVPGAELVKPGASVKVSCKASGYTFTSYWMHWMKKRPGQGLEWIGRIHPSDSDTNYNQNFKGKATLTVDKSSSTAYMQLSSLTSEDSAVYFCATGFSFWGQGTLVTVSA VL: not shown | – |
| 89.3 | 1.52 | 1.68 | 0.069 | 0.066 | 0.069 | 96.7 | antibody 624 (antibody, V domains shown, Mouse hybridoma-derived; afucosylated form used for ADCC) VH: QVQVQLPGAELVKPGASVKVSCKASGYTFTSYWMHWVKKRPGQGLEWIGRIHPSDSDTNYNQNFKGKATLTVDKSSSTAYMQLTSLTSEDFAVYYCSTGFSFWGQGTLVTVSA VL: not shown | – |
| – | – | – | – | – | – | – | antibody 2510 (antibody, human IgG1, V domains shown) VH: QVQLHQPGTSLVKPGASVKLSCKASGYNFSSYYMHWVKQRPGQGLEWIGTIHPSDSTTNYNQKFKGKATLTVDKSSRTAYMQLNSLTFEDSAVYYCANFVYWGQGTSVTVSS VL: DIVITQDELSNPVTSGDSVSISCRSSKSLLYKDGKTYLNWFLQRPGQSPQLLIYVVSTRASGVSDRFSGSGSGTDFTLEISRVKAEDVGVYYCQQLVEYPYTFGGGTKLEIK | binding result [7]: binds; binding result (Pep6 [8]): binds; binding result [9]: binds; binding result (Peptide 2a [10]): binds |
| – | – | – | – | – | – | – | antibody 2610 (antibody, V domains shown) VH: QVQLHQPGTSLVKPGASVKLSCKASGYSFSSYYMHWVKQRPGQGLEWIGTIHPSDSTTNCNQKFKGKATLTVDKSSRTAYMQLNSLTFEDSAVYYCANFVYWGQGTSVTVSS VL: DIVITQDELSNPVTSGDSVSISCRSSKSLLYKDGKTYLNWFLQRPGQSPQLLIYVVSTRASGVSDRFSGSGSGTDFTLEISRVKAEDVGVYYCQQLVEYPYTFGGGTKLEIK | binding result [7]: binds; binding result (Pep6 [8]): binds; binding result (Peptide 2a [10]): binds; binding result [11]: binds |
| – | – | – | – | – | – | – | antibody 2910 (antibody, V domains shown) VH: QVQLHQPGTSLVKPGASVKLSCKASGYTFSSYYMHWVKQRPGQGLEWIGTIHPSDSTTNYNQKFKGKATLTVDKSSRTAYMQLNSLTFEDSAVYYCANFVYWGQGTSVTVSS VL: DIVITQDELSNPVTSGDSVSISCRSSKSLLYKDGKTYLNWFLQRPGQSPQLLIYVVSTRASGVSDRFSGSGSGTDFTLEISRVKAEDVGVYYCQQLVEYPYTFGGGTKLEIK | binding result [9]: binds |
| – | – | – | – | – | – | – | antibody 2710 (antibody, V domains shown) VH: QVQLHQPGTSLVKPGASVKLSCKASGYTFSSYYMHWVKQRPGQGLEWIGTIHPSDSTTNCNQKFKGKATLTVDKSSRTAYMQLNSLTFEDSAVYYCANFVYWGQGTSVTVSS VL: DIVITQDELSNPVTSGDSVSISCRSSKSLLYKDGKTYLNWFLQRPGQSPQLLIYVVSTRASGVSDRFSGSGSGTDFTLEISRVKAEDVGVYYCQQLVEYPYTFGGGTKLEIK | binding result [11]: binds |
| 82.5 | 0.61 | 0.939 | 0.058 | 0.067 | 0.058 | 96 | antibody 604 (antibody, V domains shown, Mouse hybridoma-derived anti-CD138 antibody) VH: QVQLQQPGAELVKPGASVKVSCKASGYNFINYWMHWVKQRPGQGLEWIGRIHPSDSYTNYNQKFKGKATLTVDKSSSTAYMQLSSLTSEDSAVYYCASPISTLYWGQGTTLTVSS VL: not shown | – |
